# T1: T4 DNA ligase (UniProt P00970 1-487)
# T1 sequence: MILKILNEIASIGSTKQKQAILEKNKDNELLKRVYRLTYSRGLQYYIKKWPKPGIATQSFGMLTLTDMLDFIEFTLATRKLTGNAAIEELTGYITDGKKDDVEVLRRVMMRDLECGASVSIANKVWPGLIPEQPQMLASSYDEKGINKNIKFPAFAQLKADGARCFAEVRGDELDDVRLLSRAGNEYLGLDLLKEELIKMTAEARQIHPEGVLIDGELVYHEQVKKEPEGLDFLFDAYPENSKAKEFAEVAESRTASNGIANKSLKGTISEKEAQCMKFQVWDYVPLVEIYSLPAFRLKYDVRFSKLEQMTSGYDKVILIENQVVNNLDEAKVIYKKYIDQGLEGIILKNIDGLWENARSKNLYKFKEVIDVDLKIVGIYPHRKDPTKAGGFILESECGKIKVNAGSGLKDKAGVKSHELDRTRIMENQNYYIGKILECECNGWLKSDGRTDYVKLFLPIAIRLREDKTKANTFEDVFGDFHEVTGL
# B1: I-40-dsDNA (dsDNA)
# DNA 1: CACATATGAGAAGGTATTTGCCCGATAATCAATACTCCAG
# DNA 2: CTGGAGTATTGATTATCGGGCAAATACCTTCTCATATGTG
# B2: I-75-dsDNA (dsDNA)
# DNA 1: AGAGAAGATGACTACTGAGTTGTGCGATCCCTGCACTTCAGCTAAGGAAGCTACCAATATTTAGTTTCCGAGTCT
# DNA 2: AGACTCGGAAACTAAATATTGGTAGCTTCCTTAGCTGAAGTGCAGGGATCGCACAACTCAGTAGTCATCTTCTCT
# Key:
# Conditions in all cases: protein: commercial; blunt, no nick
# [1] = target: T1, T4 DNA ligase; assay: competition (nick-ligation inhibition, competitive fit); 1 mM ATP, 10 mM Mg2+; EMSA: 50 mM Tris pH 7.5, 5 mM DTT, 5 mM Mg2+, 1 mM sodium pyrophosphate, 5% glycerol, room temperature (22 C), 20 min; ligation competition: 50 mM Tris-HCl pH 7.5, 1 mM ATP, 10 mM MgCl2, 10 mM DTT, 16 C
# [2] = target: T1, T4 DNA ligase; assay: competition (nick-ligation inhibition); Ki x N sites; per binding site, N=34, assumed 24 bp footprint; derived from the Ki; EMSA: 50 mM Tris pH 7.5, 5 mM DTT, 5 mM Mg2+, 1 mM sodium pyrophosphate, 5% glycerol, room temperature (22 C), 20 min; ligation competition: 50 mM Tris-HCl pH 7.5, 1 mM ATP, 10 mM MgCl2, 10 mM DTT, 16 C
# [3] = target: T1, T4 DNA ligase; assay: competition (nick-ligation inhibition); Ki x N sites; per binding site, N~100, assumed 24 bp footprint; derived from the Ki; EMSA: 50 mM Tris pH 7.5, 5 mM DTT, 5 mM Mg2+, 1 mM sodium pyrophosphate, 5% glycerol, room temperature (22 C), 20 min; ligation competition: 50 mM Tris-HCl pH 7.5, 1 mM ATP, 10 mM MgCl2, 10 mM DTT, 16 C
# [4] = target: T1, T4 DNA ligase; assay: competition (nick-ligation inhibition, competitive fit); 20 nM FAM-labeled nicked substrate, 25 pM ligase, 1 mM ATP, 10 mM Mg2+, 16 C; EMSA: 50 mM Tris pH 7.5, 5 mM DTT, 5 mM Mg2+, 1 mM sodium pyrophosphate, 5% glycerol, room temperature (22 C), 20 min; ligation competition: 50 mM Tris-HCl pH 7.5, 1 mM ATP, 10 mM MgCl2, 10 mM DTT, 16 C
Binder,Ki [1],Kd [2],Kd [3],Ki [4]
B1,0.2 ± 0.03 µM,7 ± 1 µM,,
B2,,,10 ± 2 µM,0.1 ± 0.02 µM

# Source: publication PMC4782999, “The Inhibitory Effect of Non-Substrate and Substrate DNA on the Ligation and Self-Adenylylation Reactions Catalyzed by T4 DNA Ligase”
